From the nanobody polyreactivity screen of Harvey et al. (2022)

Test: yeast display, Sf9 membrane polyspecificity reagent, FACS + sequencing; frameworks hold sequencing errors
In short: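 Synthetic nanobody libraries on Saccharomyces cerevisiae BJ5465 were galactose-induced for 36–48 hours, stained 1 hour at 4 °C with 10% biotinylated, detergent-solubilized Sf9 membrane reagent and enriched on streptavidin microbeads. FACS then separated cells into low and high (top ~1%) gates by anti-HA (expression) and streptavidin (reagent binding) fluorescence. Genes were colony-PCR amplified, MiSeq 2 × 250 sequenced and CDR-length filtered. A clone's polyreactivity label is that of its gate of origin.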

Row | Sequence | polyreactivity (PSR sort gate)
1 | QVQLVESGGGLVQAGGSLRLSCAASGSTFAKNTMGWYRQAPGKERELVAAISTSGGSTYYADSVKVRFTISRDNAKNTVYLQMNSLKPEDTAVYYCAARAFQYYRAMDYWGQGTQVTVSS | low polyreactivity
2 | QVQLVESGGGLVQAGGSLRLRCAASGSTFYIYAMGWYRPAPGKERELVARISGSGGSTYYADSVKGRFTISRDNAKNTVYLQMNSLKPEDTSVYSCAAQRRVVGRHGLSLIRYDYWGQGTQVTVSS | low polyreactivity
3 | QVQLVESGGGLVQAGGSLRLSCAASGRTFSRNAMGWYRQAPGKERELVASISRSGASTYYADSVKGRFTISRDNAKNTVYLQMNSLKPEDTAVYYCNADVYSTYYNYNYWVQGTQVTVSS | high polyreactivity
4 | QVQLGESGGGLVQAGGSLRLSCAASGSIFKWYAMGWYRQAPGKERELVAAISASGGSTYYADSVKGRFTISRDNAKNSVYLQMNSLKPEDTAVYYCNTDHYYSSRHYDYWGQGTQVTVSS | low polyreactivity
5 | QVQLLESGGGLVQAGGSLRLSCAASGLTFPLYAMGWYRQAPGKERELVAAINWSGGSTYYADSVKGRFTISRDKAKNTVYLQMNSLKPEDTAVYYCAAARSSLYYYWGQGTQVTVSS | high polyreactivity
6 | QVQLVESGGGLVQAGGSLRLSCAASGFIFRRYTMGWYRQAPGKERELVAAISWTGGSTYYADSVKGRFTISRDNAKNTVYLQINRLKPEDTAVYYCNAVLYTPVYDGFDSWGQGTQVTVSS | high polyreactivity
7 | QVQLVESGGGLVQAGGSLRLSCAASGYTFVTYAMGWYRQAPGKERELVAAISYTGGSTYYADSEKGRFTISRDNAKNTVYLQMNSLKPEDTAVYYCNTRYSLYTKYAYYDEHDYWGQGTQVTVSS | low polyreactivity
8 | QVHLVESGGGLVQSGGSLRLRCAASGSTFYGYTKAWYRQAPGKERELVAAINWSGTRTYYADSVNGRFTISRDTAKNTVYLQMNSLKPEDTAVYYCAAERYYWGLGTQVTVSS | high polyreactivity
9 | QVQLVESGGGLVQAGGSLRLSCAASGSTFRYIAMGWYRQAPGKERELVAAISRGGSTNYADSVKGRFTISRDNAKNSVYLQMNSLKPEDTAVYYCAASGTRRGTAVWRVKPGDYWGQGTQVTVSS | high polyreactivity
10 | QVQLVESGGGLVQAGGSLRISCAASGSTFASTALGRYRLAAGKEMELVASISGSGGSTFYADSVKGRFTISRDNAKNTVYLQMNSLKPEDTEVYYCAAYKEPYYEEYGYGGQGTQVTVSS | low polyreactivity
11 | QVQLVESGGGLVQAGGSLRLSCAASGFTFWIYAMGWYRQARGKEWELVAAISASGGYTRYADSVKGRFTISRDNAKNTVYLQMNSLKPEDTAVYYCAAYHGLRRGFDYWGEGTQVTVSS | high polyreactivity
12 | QVQLVESGGGLVQAGGSLRLSCAASGFIFTPYTMGWYSQAPGKERELVAAITDGSSTYYADSVKGRFTISRDNAKNTVYLQMNSLKPEDTALYYCNADGKPPYNSWLYDYWGQGTQVTVTS | low polyreactivity
13 | QVQLVESGGGLVQAGGSLRLSCGASGFTFSPYAMGWYRQAPGKERELVAVISGGGSTYYADSVKGRFTISRDNAKNTVYLQMNSLKPEDTAGYYCAKRFYRSYYWGQGTQVTVSS | high polyreactivity
14 | QVQHVESGGGLVQAGGSLRLSCAASGYIFVRNAMGWYRQAPGKERELVAAISGSGGSTYYADSVKGRFTISRDNAKNTVYLQMNSLKPEDTAVYYCAADYATVTWRGIAYDYWGQGTQVTVSS | low polyreactivity
15 | QVQLVESGGGLVQAGGSLRLSCAASGSTFVHYGMGWYRQAPGKERELVAAISYSGGSTSYADSVKGRFTISRDNAKNTVYLQMNSLKPEDTAVYYCATVRKRRYDYWGQGTQVTVSS | low polyreactivity
16 | QVQLVESGGGLVQAGGSLRLSCAASGRIFYYNDLGWYRQAPGKERELVAAISGSGGSTYYADSVKGRFTISRDNAKNTVYLQMNSLKPEDTAVYYCSYYYWGQGTQVTVSS | low polyreactivity
17 | QVQLVESGGGLVQAGGSLRLSCAASGFIFQYYAMGWYRQAPGKERELVAVIRSGGSTYYADSVKGRFTISRDNAKNTVYLQMNSLKPEDTAVYYCARPSRGPPRGYYWGHGTQVTVSS | high polyreactivity
18 | QVQLVESGGGLVQAGGSLRLICAASGRILDNYAMGWYRQAPGKERELVAAISASGASTYYADSVKGRFTISRDNAKNTVYLQMNSLKPEDTAVYYCNAAARYRWQYDYSLYEYGHWGQGTQVTVSS | high polyreactivity
19 | QVQLVESGGGLVQAGGSLRLSCAASGSTYATYAMGWYRQAPGKERELVAVITRGGRTYYADSVKGRFTISRDNAKNTVYLQMNSLKPEDTAVYYCAARTLWYVIFTLHDYNYWGQGTQVTVSS | high polyreactivity
20 | QVQHVESGGGLVQAGGSLRLSCAASGSIFGANAMGWYRQAPGNERQLVAAITSGGSTTYADSVKGRFTISRDNAKNTVYLQMNSLKPDDTAVYYCAADESTPYWPVDNFDYWGQGTQVTVSS | low polyreactivity
21 | QVQLVESGGGLVQAGGSLRLSSAASGFIFEPYAMGWYRQAPGKERELVAAIRWSDGSTFYADSVKGRFTISRDTAKNTVYLQMNSLKPEDSAVYYCNAVYEHRRVGWVTIDYGYWGQGTQVTVSS | low polyreactivity
22 | QVQLVESGGGLVQAGGSLSLSFAASGSTFERYAMGWSRQAPGKERELVAAIRASGVRTYYADSVKGRFTISRDNAKNTVNLQMNSLKPEDTAVYYCAAELQRYWGRLYYYWGQGTQVSVSS | high polyreactivity

Row | Sequence | polyreactivity (PSR sort gate)
23 | QVQLVESGRGLVQAGGSLRLSCAASGSTFDGYAMGWYRQAPGKVRELVAAINWGGGSTRYADSVKGRFTISRDHAKNTVYLQMNSLKPEDTPVYYCAAYRYRVWYRGYDYWGQGTQVTVSS | high polyreactivity
24 | QVQLVESGGGLVQAGGSLRLSCAASGRTFRVNAMGWYRQAPGKERELVAAITSSGGNTYADSVKGRFTISRDNAKNTVYLQMNSLKPEDTAVYYCAAVSSTRGDYWGQGTQVTVSS | high polyreactivity
25 | QVQLVESGGGLVQAGGSLRLSSAASGSIFKYYAMGWYRQAPGKERELVATISSVGSTNYADSVKGRFTISRDNAKNTVYLKMNSLKPEATAVYYCNARIGSRSYAWISTRYDYWGQGTQVTVSS | high polyreactivity
26 | QVQRVESGGCLVQAGGSLRLSCAASGRTFSYYTMGWYRQAPGKEREFVATINTSGGSTYYADSVKGRFTISRDNAKNTVYLQMNSLKPEDTAVYYCAADVYSFLSISYQWYRMDYWGQGTQVTVSS | low polyreactivity
27 | QVQQQESGGGLVQAGGSLRLSCAASGTIFQLTVMGRYRQAPGKERELVASIDYGGNTNYADSVKGRFTISRDNAKNTVYLQMNRLKPEDTAVYYCSASSDSWTTHPYWGQGTQVTVSS | low polyreactivity
28 | QVQLVESGGGLVQAGGSLRLSCAASGRTSGYYAMGWYRQAPGKERELVATISGNVGRTYYADSVKGRFTISRDNAKNTVYLQMNSLKPEDTAVYYCAARTYGPYDYWGQGTQVTVSS | low polyreactivity
29 | QVQLVESGGGLVQAGGSLRLSCAATGSTRYYAMGWYRHAPGKERELVASIASIGGSTSYADSVKGRFTISRDNAKNTVYLQMNSLKPEDTAVYYCATRSLVYSARAAGLIQFDHWGQGTQVTVSS | low polyreactivity
30 | QVQLVESGGGLVQAGGSLRLSCAASGFTFYGNAMGWYRQAPGKERELVAAISGRGGSTYYADSVKGRFTISRDNAKNTVYLQMNSRKPEDTAVYYCNKRGPYRWYSAPYGYWGQGTQVTVSS | low polyreactivity
31 | QVQLVESGGGLVQAGGSLRLSCAASGFTFDINAMGWYRQAPGKERELVADITSGGTTDYADSVKGRFTISRDNAKNTVYLQMNSLKPEDTADYYCAAEVLDAYYGDDYWGQGTQVTVSS | high polyreactivity
32 | QVQLVESGGGLVQAGGSLRLSCAASGFTFSWYAMGWYRQAPGKETELVAAITRSGGSTNYADSVKGRFTISRDNAKNTVYLQMNSLKPEDTAVYYCNAAGYRRSTWWYDYWGQGTQVTVSS | high polyreactivity
33 | QVQLVESGGGLVQAGGSLRLSCAASGSIFVYVMGWYRQAPGKERELVAAISSGGSTDYADSVKGRFTISRDNAQNTVYLQMNSLKPEDTAVYYCAADTDTGYTYYYWGQGTQVTVSS | low polyreactivity
34 | QVHLVESGGGLVQAGGSLRLSCAASGSIFQPYAIRWYRQAPGKERELVAAISSSGGSTTYADSVKGRFTISRDNAKNTVYLQMTSLKPEDTAVYYCAADSADDMGYWGQGTQVTVSS | low polyreactivity
35 | QVQLVESGGGLVQAAGSLRLSSAPSGRIFYKNARGWYRQAPGKETELVAAISWRGTSTYYADSVKGRFTISRDNAKNTVYLQMNILKPEDTAVYYCNTLYYSQREIYYWGYDSWGKGTQVTVSS | high polyreactivity
36 | QVHLVESGGVLVQAGGSLLLSCGACGSIFAQYTMGWYRNAPGKDRELVAAISSSGGSTYYADSVKGRFTISRDNANNTFYLQMNSLKAEDTAVYYCAARGAHYLRSGDHWGQGTQVNVSS | low polyreactivity
37 | QVHLVESGGGLVQAGGSLRLSCAASGFIFTDYAMGWYRQAPGKERELVAAISSGGRTYYADSVKGRFTISRDNAKNTVYLQMNSLKPEDTAVYYCARGGRAEGWGQGTQVTVSS | high polyreactivity
38 | QVQLVESRGGLVQAGGSLRLSCAASGFIFLPYAMGWYRQAPGKERELVATINSGDSTYADSVKGRFTISRDNAKNTVYLQMNSLKPEDTAVNYCNAYWLVVPVDLDYWGQGTQVTVSS | low polyreactivity
39 | QVQLVESGGGLVQAGGSLRLSCTASGRIFTRNAMGWYRQAPGKERELVASISRTGTSTYYADSVKGRFTISRDNEKNNVYLQMNSLKPEDTAVYYFNARRTSVRFDYWGQGTQVTVSS | high polyreactivity
40 | QVQLVESGGGLVQAGGSLRLSCAASGFTFPWYTMGWYRQAPGKERELGAAINSRGGSTYYADSVKGRFTISRDNAKNTVYLQMNSLKPEDTAVYYCATRSFGRMDYWGQGTQVTVSS | high polyreactivity
41 | QFQLVESGGGLVQAGGSLRLSCAASGRIFYVYGMGWYRQAPGKERELVAAISKRGDNTYYADSVKGRFTISRDNAKNTVYLQMNSLKPEDTAVYYCNVKRYGGRSDYWGQGTQVTVSS | high polyreactivity
42 | QVQLVESGGGLVQAGGSLRLSCAASGSISGLYAMGWYRQAPGKERELVARIRWRGDSTYYADSVKGRFTISRDNAKNTVYLQMNSLNPEDTAVYYCAASAYSGKVNKYNYWGQGTQVTVSS | high polyreactivity
43 | QVQLVESGGGLVQAGGSLRLSCAASGFISPPYAMGWYRQAPGKERELVAAIRSSGGSTYYADSVKGRFTISRDNAKNTVYLQMNSLKPEDTAVYYCNADWIYISSYGWYSYDYWGQGTQVTLSS | high polyreactivity
